How the values were obtained:
Assay type in all cases: cell-based
HEPG2 = test: IFN-γ release, co-culture with HEPG2; settings: co-cultured with HEPG2
Text: (§1) SSX-2 TCR-transduced PBLs were co-cultured with various tumor cell lines. […] FIGS. 4A and 4B, FIG. 11, and Tables 3 and 4 show additional results of PBLs from human donors that were transduced with the SSX-2 TCR of Example 2 when these PBLs were co-cultured with various tumor cells.

T567A = test: IFN-γ release, co-culture with T567A melanoma; settings: co-cultured with T567A (Melanoma)
Text: as §1

COS-A2-SSX-2 cells = test: Proliferation ([3H]-thymidine) on co-culture with COS-A2-SSX-2 cells; settings: PBL from Donor 1 or Donor 2; FIGS. 6A, 6B
Experimental: PBLs from Donor 1 or Donor 2 that were untransduced (UT) or transduced with a vector comprising SEQ ID NO: 27 (SSX-2 TCR), SEQ ID NO: 29 (codon-optimized SSX-2 TCR), or SEQ ID NO: 30 (codon-optimized SSX-2 TCR including mouse constant region) were co-cultured with COS-A2-SSX-2 cells. Proliferation in terms of [^3H]-thymidine incorporation (CPM) was measured and is shown in FIG. 6A (Donor 1) and 6B (Donor 2).

Lau 149 mel = test: IFN-γ release, co-culture with Lau 149 mel; settings: co-cultured with Lau 149 mel
Text: (§2) PBLs that were untransduced (UT) or transduced with a vector comprising SEQ ID NO: 27 (SSX-2 TCR), SEQ ID NO: 29 (codon-optimized SSX-2 TCR), or SEQ ID NO: 30 (codon-optimized SSX-2 TCR including mouse constant region) were co-cultured with various tumor cell lines. Tables 5 and 6 show the resulting interferon-γ levels (pg/ml) measured with respect to PBL from two different donors.

U251 Glioma = test: IFN-γ release, co-culture with U251 glioma; settings: co-cultured with U251 (Glioma)
Text: as §2, with “SSX-2 TCR-transduced PBLs were co-cultured with various tumor cell lines. […] FIGS. 4A and 4B, FIG. 11, and Tables 3 and 4 show additional results of PBLs from human donors that were transduced with the SSX-2 TCR of Example 2 when these PBLs were co-cultured with various tumor cells. PBLs” for “PBLs”

T331A mel = test: IFN-γ release, co-culture with T331A; settings: for IFN-γ: co-cultured with T331A; for interferon-γ levels: co-cultured with T331A mel
Text: as §2, with “SSX-2 TCR-transduced PBLs were co-cultured with various tumor cell lines. […] FIGS. 4A and 4B, FIG. 11, and Tables 3 and 4 show additional results of PBLs from human donors that were transduced with the SSX-2 TCR of Example 2 when these PBLs were co-cultured with various tumor cells. PBLs” for “PBLs”

938-A2 mel = test: IFN-γ release, co-culture with 938-A2 melanoma; settings: Table 3; co-cultured with 938-A2 (Melanoma)
Text: as §2, with “SSX-2 TCR-transduced PBLs were co-cultured with various tumor cell lines. […] FIGS. 4A and 4B, FIG. 11, and Tables 3 and 4 show additional results of PBLs from human donors that were transduced with the SSX-2 TCR of Example 2 when these PBLs were co-cultured with various tumor cells. PBLs” for “PBLs”

888 = test: IFN-γ release, co-culture with 888; settings: co-cultured with 888
Text: as §1

K562 = test: IFN-γ release, co-culture with K562; settings: co-cultured with K562
Text: as §2

[1] = system: melanoma (624, and 1300) and glioblastoma cell lines (U251); test: IFN-γ release, co-culture with various tumor cell lines (FIG. 3)
Text: SSX-2 TCR-transduced PBLs were co-cultured with various tumor cell lines.

B1: SSX2-TCR-WT: HLA-A2 restricted anti-SSX-2 TCR alpha and beta chains encoded by SEQ ID NO: 27, tested as transduced human PBLs (protein)
chain: MSLSSLLKVVTASLWLGPGIAQKITQTQPGMFVQEKEAVTLDCTYDTSDPSYGLFWYKQPSSGEMIFLIYQGSYDQQNATEGRYSLNFQKARKSANLVISASQLGDSAMYFCAMTSGFGNEKLTFGTGTRLTIIPNIQNPDPAVYQLRDSKSSDKSVCLFTDFDSQTNVSQSKDSDVYITDKTVLDMRSMDFKSNSAVAWSNKSDFACANAFNNSIIPEDTFFPSPESSCDVKLVEKSFETDTNLNFQNLSVIGFRILLLKVAGFNLLMTLRLWSSRAKRSGSGATNFSLLKQAGDVEENPGPMGPGLLHWMALCLLGTGHGDAMVIQNPRYQVTQFGKPVTLSCSQTLNHNVMYWYQQKSSQAPKLLFHYYDKDFNNEADTPDNFQSRRPNTSFCFLDIRSPGLGDAAMYLCATSRGQGGQPQHFGDGTRLSILEDLNKVFPPEVAVFEPSEAEISHTQKATLVCLATGFFPDHVELSWWVNGKEVHSGVSTDPQPLKEQPALNDSRYCLSSRLRVSATFWQNPRNHFRCQVQFYGLSENDEWTQDRAKPVTQIVSAEAWGRADCGFTSVSYQQGVLSATILYEILLGKATLYAVLVSALVLMAMVKRKDF
In the case of B1, the IFN-γ (HEPG2; Table 3) is reported as 25 pg/mL, the IFN-γ (HEPG2; Table 4) is reported as 61 pg/mL and the IFN-γ (T567A; Table 3) is reported as 10280 pg/mL. The IFN-γ (T567A; Table 4) was 13245 pg/mL, the “proliferation ([3H]-thymidine incorporation)” value (COS-A2-SSX-2 cells) was “proliferate in response to co-culture with COS-A2-SSX-2 cells” and the interferon-γ levels (Lau 149 mel; Table 5 donor) was 285 pg/mL. It also gave an interferon-γ levels (Lau 149 mel; Table 6 donor) of 125 pg/mL, an IFN-γ (U251 Glioma; Table 3) of 9770 pg/mL and an IFN-γ (U251 Glioma; Table 4) of 12025 pg/mL. It also gave an IFN-γ (T331A mel; Table 3) of 0 pg/mL, an IFN-γ (T331A mel; Table 4) of 42 pg/mL and an interferon-γ levels (T331A mel; Table 5 donor) of 30 pg/mL. It also gave an interferon-γ levels (T331A mel; Table 6 donor) of 58 pg/mL, an IFN-γ (938-A2 mel) of 19320 pg/mL and an IFN-γ (888; Table 3) of 126 pg/mL. For the same molecule, the IFN-γ (888; Table 4) was 143 pg/mL, the interferon-γ levels (K562; Table 5 donor) was 1969 pg/mL and the interferon-γ levels (K562; Table 6 donor) was 1807 pg/mL. The “recognition of tumor cell lines (IFN-γ)” value [1] was “recognized naturally processed and presented SSX-2 protein in both melanoma (624, and 1300) and glioblastoma cell lines (U251)”.

— patent US10864252B2, “Anti-SSX-2 T cell receptors and related materials and methods of use” (The United States of America, as represented by the …, priority 2010, dated 2020)
